Experimental findings from patent publication US6762290, “High affinity vascular endothelial growth factor (VEGF) receptor nucleic acid ligands and inhibitors” (Gilead Sciences, Inc.) are described below.

Data set [1] has as its target T1, VEGFR2 (KDR) extracellular domain/Fc (Homo sapiens, UniProt P35968 P35968:20-764). Kind of data set: filter. As to conditions: tags: C-terminal human IgG1 Fc fusion with Factor Xa site and His6; R&D Systems; NSO mouse myeloma cells; chain copies: 2 (stated, disulfide-linked homodimer).
The target in data set [2] is T2, VEGF receptors on HUVEC (VEGFR2/KDR) (Homo sapiens, UniProt P35968 P35968:20-1356). The experiment in a line: competition; inhibition of 125I-VEGF-165 binding to HUVEC, DPBS with Ca, Mg, room temperature. The method, then:
(§1) We next examined whether a group of representative aptamers was able to inhibit the binding of [125]I-VEGF-165 to VEGF receptors expressed on HUVECs. Cells were seeded in 96-well plates at a density of about 10,000 cells/well and maintained until confluent. Culture medium was then replaced with growth factor deficient medium (MEM, 5% heat inactivated fetal bovine serum, 1 µg/ml heparin) for 3–4 hours. Cells were then washed with Dulbecco's phosphate-buffered saline (DPBS) (containing 1 mM CaCl_2, 1 mM MgCl_2 and 0.1% bovine serum albumin) followed by the addition of 100 µl/well of DPBS. [125]I-VEGF-165 ([…]) in the presence of varying amounts of aptamers (0.001–1000 nM) was then added to cells for 2 hours at room temperature. Unbound [125]I-VEGF-165 was then removed by washing with DPBS and the cells were lysed with Triton X-100. Lysates were harvested onto glass fiber filters plates and processed for scintillation counting. Aptamers K1, K10, K17 and K21 were tested. […] Thus, among the VEGFR2 aptamers tested, both receptor binding antagonists and non-antagonists have been identified.

The target in data set [3] is T2, VEGF receptors on HUVEC (VEGFR2/KDR). The experiment in a line: competition; inhibition of 125I-VEGF-165 binding to HUVEC. The method, then: as §1
In data set [4] the target is T1, VEGFR2 (KDR) extracellular domain/Fc. The experiment in a line: filter; circularly permuted family member. The following applies: tags: C-terminal human IgG1 Fc fusion with Factor Xa site and His6; R&D Systems; NSO mouse myeloma cells; chain copies: 2 (stated, disulfide-linked homodimer).
The target is the same in data set [5]. The experiment in a line: filter; 30N clone. As to conditions: tags: C-terminal human IgG1 Fc fusion with Factor Xa site and His6; R&D Systems; NSO mouse myeloma cells; chain copies: 2 (stated, disulfide-linked homodimer).
For data set [6] the target is unchanged. The experiment in a line: filter; Table 2 prints CCACGGC where listing has ccaccgc. The following applies: tags: C-terminal human IgG1 Fc fusion with Factor Xa site and His6; R&D Systems; NSO mouse myeloma cells; chain copies: 2 (stated, disulfide-linked homodimer).

T1 sequence (P35968 20-764, one chain of several): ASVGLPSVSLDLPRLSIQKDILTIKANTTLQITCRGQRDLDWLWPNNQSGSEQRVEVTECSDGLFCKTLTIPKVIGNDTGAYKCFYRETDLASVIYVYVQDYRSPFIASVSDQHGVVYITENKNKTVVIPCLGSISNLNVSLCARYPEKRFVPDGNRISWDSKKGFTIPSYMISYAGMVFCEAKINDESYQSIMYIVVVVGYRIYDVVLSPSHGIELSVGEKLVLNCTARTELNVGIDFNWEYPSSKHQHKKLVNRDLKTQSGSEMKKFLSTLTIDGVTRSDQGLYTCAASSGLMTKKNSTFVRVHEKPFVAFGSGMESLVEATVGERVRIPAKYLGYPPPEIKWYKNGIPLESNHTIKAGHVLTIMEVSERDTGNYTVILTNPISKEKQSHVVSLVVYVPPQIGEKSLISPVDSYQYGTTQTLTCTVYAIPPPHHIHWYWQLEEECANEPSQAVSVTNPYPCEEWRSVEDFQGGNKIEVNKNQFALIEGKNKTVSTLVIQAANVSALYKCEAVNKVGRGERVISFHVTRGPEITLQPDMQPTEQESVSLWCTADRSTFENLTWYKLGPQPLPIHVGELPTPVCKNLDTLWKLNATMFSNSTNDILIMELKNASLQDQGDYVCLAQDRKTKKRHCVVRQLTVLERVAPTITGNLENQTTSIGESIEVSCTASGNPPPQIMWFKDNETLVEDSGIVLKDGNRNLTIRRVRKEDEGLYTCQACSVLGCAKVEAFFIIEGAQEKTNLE
T2 sequence (P35968 20-1356, one chain of several): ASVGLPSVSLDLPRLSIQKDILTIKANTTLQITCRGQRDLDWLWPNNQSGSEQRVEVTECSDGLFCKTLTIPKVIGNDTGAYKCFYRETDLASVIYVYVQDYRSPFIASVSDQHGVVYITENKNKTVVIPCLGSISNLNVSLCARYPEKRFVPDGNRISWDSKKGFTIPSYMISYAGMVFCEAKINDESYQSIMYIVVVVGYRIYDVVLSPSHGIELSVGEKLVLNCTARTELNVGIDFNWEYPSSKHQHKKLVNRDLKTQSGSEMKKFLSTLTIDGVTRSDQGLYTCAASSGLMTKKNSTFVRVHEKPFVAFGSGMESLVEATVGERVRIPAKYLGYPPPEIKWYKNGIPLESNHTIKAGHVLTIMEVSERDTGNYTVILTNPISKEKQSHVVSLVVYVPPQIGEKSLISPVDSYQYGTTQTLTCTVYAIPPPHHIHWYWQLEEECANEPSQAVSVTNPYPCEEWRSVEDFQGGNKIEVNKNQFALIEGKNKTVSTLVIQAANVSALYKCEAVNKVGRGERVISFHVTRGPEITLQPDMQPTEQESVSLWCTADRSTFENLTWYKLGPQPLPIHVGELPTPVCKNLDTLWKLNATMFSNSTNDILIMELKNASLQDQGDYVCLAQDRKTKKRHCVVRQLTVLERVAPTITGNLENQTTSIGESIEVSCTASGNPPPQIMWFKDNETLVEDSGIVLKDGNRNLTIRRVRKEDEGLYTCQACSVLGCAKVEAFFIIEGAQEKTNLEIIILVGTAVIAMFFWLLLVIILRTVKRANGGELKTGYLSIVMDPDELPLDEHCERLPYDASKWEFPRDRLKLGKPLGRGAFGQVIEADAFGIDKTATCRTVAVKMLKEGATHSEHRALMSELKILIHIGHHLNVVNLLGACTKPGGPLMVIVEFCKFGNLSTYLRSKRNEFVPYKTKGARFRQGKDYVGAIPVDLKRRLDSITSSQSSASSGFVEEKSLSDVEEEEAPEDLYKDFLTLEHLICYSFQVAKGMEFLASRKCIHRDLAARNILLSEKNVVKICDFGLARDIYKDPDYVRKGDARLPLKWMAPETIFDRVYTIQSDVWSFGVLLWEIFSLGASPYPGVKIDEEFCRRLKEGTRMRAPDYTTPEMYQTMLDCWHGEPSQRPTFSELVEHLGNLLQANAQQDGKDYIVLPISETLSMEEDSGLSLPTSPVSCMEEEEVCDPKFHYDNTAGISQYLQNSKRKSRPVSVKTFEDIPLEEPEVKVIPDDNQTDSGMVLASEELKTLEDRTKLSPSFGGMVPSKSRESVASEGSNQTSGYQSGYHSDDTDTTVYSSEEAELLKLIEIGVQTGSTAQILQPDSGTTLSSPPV

B1: K12 (ssRNA)
RNA: GGGAGGACGAUGCGGAAACGGAAGAAUUGGAGACCGACGUCGACCUCUUGGCCCCAGACGACUCGCCCGA
modifications: 2'-F pyrimidines
In the case of B1, the Kd – broadly, a measure of binding affinity in units of concentration – in data set [1] stood at 15.4 nM.

B2: K7 (ssRNA)
RNA: GGGAGGACGAUGCGGACGAUAACACAGGGCCUGCUUGGAUCACACUGAUUGCGCCCAGACGACUCGCCCGA
modifications: 2'-F pyrimidines
On to B2, for which the Kd in data set [1] turned out to be 0.46 nM.

B3: K10 (ssRNA)
RNA: GGGAGGACGAUGCGGUUGAUCGAGGUUCUAAGGCCUAUUUCCUGACUUUCUCCCCCAGACGACUCGCCCGA
modifications: 2'-F pyrimidines
Take B3: in data set [1], the Kd worked out at 0.47 nM. The IC50 – broadly, the midpoint of a concentration-inhibition curve – in data set [2] was 1 nM.

B4: K11 (ssRNA)
RNA: GGGAGGACGAUGCGGUUGAUCGAGGUUCUAAAGCCUAUUUCCUGACUUUCUCCCCCAGACGACUCGCCCGA
modifications: 2'-F pyrimidines
Turning to B4, the affinity in data set [1], expressed as Kd, was 0.61 nM.

B5: K1 (ssRNA)
RNA: GGGAGGACGAUGCGGGGCCUGUUUGGAUCAUACCGAUCGUCAAUCCAAGAGUGGUCAGACGACUCGCCCGA
modifications: 2'-F pyrimidines
Consider B5, for which the dissociation constant Kd in data set [1] amounted to 0.07 nM.

B6: K2 (ssRNA)
RNA: GGGAGGACGAUGCGGGGCCUGUUUGGAUCAUACCGAUCGUCAAUCCUAAAGUGGUCAGACGACUCGCCCGA
modifications: 2'-F pyrimidines
As to B6, binding in data set [1] was characterised by a dissociation constant (Kd) of 0.27 nM.

B7: K4 (ssRNA)
RNA: GGGAGGACGAUGCGGAGGUGCUCCUUUGGAACUUCGUAUUUGUCUGCUCCUGGUCAGACGACUCGCCCGA
modifications: 2'-F pyrimidines
Molecule B7 displayed a Kd in data set [1] of 0.28 nM.

B8: K21 (ssRNA)
RNA: GGGAGGACGAUGCGGAUCAUACCGAAGAGACACGGGGCCACCAUAUCCUCACCCCCAGACGACUCGCCCGA
modifications: 2'-F pyrimidines
In turn, B8 returned an IC50 in data set [3] of 79 nM. The Kd in data set [4] came to 0.26 nM.

B9: K13 (ssRNA)
RNA: GGGAGGACGAUGCGGAACCAAUUAAGUCUGGCAAAUCUCUCUGUGCAGACGACUCGCCCGA
modifications: 2'-F pyrimidines
Regarding B9, in data set [5], the Kd was 0.75 nM.

B10: K5 (ssRNA)
RNA: GGGAGGACGAUGCGGCAUGGGGCCUGACUGGAUCAUACCACCGCUUCCUCUGGUCAGACGACUCGCCCGA
modifications: 2'-F pyrimidines
In the case of B10, the Kd in data set [1] was determined as 0.44 nM.

B11: K3 (ssRNA)
RNA: GGGAGGACGAUGCGGCAUGGGGCCUGACUGGAUCAUACCACCGCUUUCUCUGGUCAGACGACUCGCCCGA
modifications: 2'-F pyrimidines
In data set [6], B11 registered a Kd of 0.51 nM.

B12: K23 (ssRNA)
RNA: GGGAGGACGAUGCGGACACACACAUCAUAAACAUUGUCCGUUGACCAGACGACUCGCCCGA
modifications: 2'-F pyrimidines
On to B12, for which the Kd in data set [5] came to 2.2 nM.
